94 variants from the supplement of paper PMC10567573 can be followed below.

Sequences and labels used below:
B1: KLHDC10 (parent)
chain: PSLLELAWEKLLAAFPNLANLSRT
B2: PLD5 (parent)
chain: WIVDKQHVYIGSAGLDWQSLGQMK
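Further: lentivirally expressed fusions sorted by FACS into six bins by GFP to DsRed ratio, PSI derived from sequencing read proportions per bin multiplied by bin number.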

Variants of B1 are the subject of the first series. The series can be described thus: protein stability index of a GFP-peptide fusion (GPS, HEK-293T) (PSI 1-6); higher = more stable. To be noted: c terminus: a fixed tail appended.
For PSLLELAWEKLLAAFPNLANLHRT [S22H], the protein stability index was 2.11.
For the variant PSLLELAWEKLLAAFPNLANLIRT [S22I], the protein stability index is 2.28.
Still for that read-out and setting: with PSLLELAWEKLLAAFPNLANLPRT [S22P] the figure was 2.21.
Take PSLLELAWEKLLAAFPNLANLKRT [S22K]: the protein stability index stood at 2.57.
With PSLLELAWEKLLAAFPNLANLWRT [S22W], the protein stability index is 2.21.
For PSLLELAWEKLLAAFPNLANLERT [S22E], the protein stability index amounted to 2.59.
Regarding PSLLELAWEKLLAAFPNLANLLRT [S22L], the protein stability index amounted to 2.4.
Still for that read-out and setting: the value for PSLLELAWEKLLAAFPNLANLFRT [S22F] was 2.46; that for PSLLELAWEKLLAAFPNLANLDRT [S22D] was 1.95.
Consider PSLLELAWEKLLAAFPNLANLGRT [S22G], for which the protein stability index was 1.9.
On the same count and under the same terms, with PSLLELAWEKLLAAFPNLANLNRT [S22N] the figure was 2.23; with PSLLELAWEKLLAAFPNLANLCRT [S22C], 2.34.
On the same count and under the same terms, with PSLLELAWEKLLAAFPNLANLMRT [S22M] the figure was 2.02; with PSLLELAWEKLLAAFPNLANLQRT [S22Q], 2.38; with PSLLELAWEKLLAAFPNLANLVRT [S22V], 1.78.
In the case of PSLLELAWEKLLAAFPNLANLYRT [S22Y], the protein stability index was 1.81.
As to PSLLELAWEKLLAAFPNLANLART [S22A], the protein stability index was determined as 2.81.
Still for that read-out and setting: the value for PSLLELAWEKLLAAFPNLANLRRT [S22R] was 2.71.
On the same count and under the same terms, the value for PSLLELAWEKLLAAFPNLANRSRT [L21R] was 2.38; that for PSLLELAWEKLLAAFPNLANQSRT [L21Q] was 2.05; that for PSLLELAWEKLLAAFPNLANPSRT [L21P] was 2.07.
For the variant PSLLELAWEKLLAAFPNLANDSRT [L21D], the protein stability index is 2.33.
Same read-out and setting: the value for PSLLELAWEKLLAAFPNLANVSRT [L21V] was 2.35.
Still for that read-out and setting: the value for PSLLELAWEKLLAAFPNLANSSRT [L21S] was 2.17.
On the same count and under the same terms, the value for PSLLELAWEKLLAAFPNLANCSRT [L21C] was 2.16; that for PSLLELAWEKLLAAFPNLANYSRT [L21Y] was 2.4; that for PSLLELAWEKLLAAFPNLANKSRT [L21K] was 2.38.
Regarding PSLLELAWEKLLAAFPNLANASRT [L21A], the protein stability index was 2.14.
Same read-out and setting: with PSLLELAWEKLLAAFPNLANESRT [L21E] the figure was 1.82; with PSLLELAWEKLLAAFPNLANNSRT [L21N], 2.52.
With PSLLELAWEKLLAAFPNLANISRT [L21I], the protein stability index was found to be 1.76.
The same measure, in the same setting: with PSLLELAWEKLLAAFPNLANGSRT [L21G] the figure was 2.22.
Still for that read-out and setting: the value for PSLLELAWEKLLAAFPNLANTSRT [L21T] was 2.6; that for PSLLELAWEKLLAAFPNLANWSRT [L21W] was 2.6.
Same read-out and setting: the value for PSLLELAWEKLLAAFPNLANHSRT [L21H] was 2.72; that for PSLLELAWEKLLAAFPNLANMSRT [L21M] was 2.25; that for PSLLELAWEKLLAAFPNLANFSRT [L21F] was 2.54.
For PSLLELAWEKLLAANPNLANLSRT [F15N], the protein stability index amounted to 2.31.
Still for that read-out and setting: the value for PSLLELAWEKLLAATPNLANLSRT [F15T] was 2.1.
With PSLLELAWEKLLAAWPNLANLSRT [F15W], the protein stability index was 2.4.
Still for that read-out and setting: with PSLLELAWEKLLAAVPNLANLSRT [F15V] the figure was 2.38; with PSLLELAWEKLLAAIPNLANLSRT [F15I], 1.39.
As to PSLLELAWEKLLAAKPNLANLSRT [F15K], the protein stability index stood at 1.78.
Still for that read-out and setting: with PSLLELAWEKLLAALPNLANLSRT [F15L] the figure was 2.16.
Same read-out and setting: with PSLLELAWEKLLAAYPNLANLSRT [F15Y] the figure was 1.7.
The same measure, in the same setting: the value for PSLLELAWEKLLAAQPNLANLSRT [F15Q] was 2.52; that for PSLLELAWEKLLAASPNLANLSRT [F15S] was 1.92.
Regarding PSLLELAWEKLLAAPPNLANLSRT [F15P], the protein stability index amounted to 2.49.
Still for that read-out and setting: with PSLLELAWEKLLAARPNLANLSRT [F15R] the figure was 2.11; with PSLLELAWEKLLAAMPNLANLSRT [F15M], 2.06; with PSLLELAWEKLLAAFPNLANLSRH [T24H], 2.56.
Still for that read-out and setting: with PSLLELAWEKLLAAFPNLANLSRY [T24Y] the figure was 2.32; with PSLLELAWEKLLAAFPNLANLSRL [T24L], 1.85.
Consider PSLLELAWEKLLAAFPNLANLSRM [T24M], for which the protein stability index worked out at 2.17.
Consider PSLLELAWEKLLAAFPNLANLSRW [T24W], for which the protein stability index was 2.28.
The same measure, in the same setting: the value for PSLLELAWEKLLAAFPNLANLSRA [T24A] was 2.34; that for PSLLELAWEKLLAAFPNLANLSRE [T24E] was 2.22.
On the same count and under the same terms, the value for PSLLELAWEKLLAAFPNLANLSRF [T24F] was 2.06; that for PSLLELAWEKLLAAFPNLANLSRI [T24I] was 2.03.
On to PSLLELAWEKLLAAFPNLANLSRS [T24S], for which the protein stability index was 2.14.
With PSLLELAWEKLLAAFPNLANLSRK [T24K], the protein stability index came to 2.25.
Same read-out and setting: with PSLLELAWEKLLAAFPNLANLSRP [T24P] the figure was 2.44; with PSLLELAWEKLLAAFPNLANLSRQ [T24Q], 1.56; with PSLLELAWEKLLAAFPNLANLSRR [T24R], 2.6.
On the same count and under the same terms, with PSLLELAWEKLLAAFPNLANLSRC [T24C] the figure was 1.6; with PSLLELAWEKLLAAFPNLANLSRV [T24V], 2.29; with PSLLELAWEKLLAAFPNLANLSRG [T24G], 2.17.
On the same count and under the same terms, with PSLLELAWEKLLAAFPNLANLSRD [T24D] the figure was 2.79; with PSLLELAWEKLLAAFPNLANLSRN [T24N], 2.23; with PSLLELAWEKLLAAFPNLQNLSRT [A19Q], 2.37.
Consider PSLLELAWEKLLAAFPNLHNLSRT [A19H], for which the protein stability index turned out to be 1.93.
In the case of PSLLELAWEKLLAAFPNLDNLSRT [A19D], the protein stability index amounted to 2.46.
PSLLELAWEKLLAAFPNLINLSRT [A19I]: the protein stability index was 2.32.
In the case of PSLLELAWEKLLAAFPNLNNLSRT [A19N], the protein stability index worked out at 2.29.
On the same count and under the same terms, the value for PSLLELAWEKLLAAFPNLPNLSRT [A19P] was 2.29.
Turning to PSLLELAWEKLLAAFPNLYNLSRT [A19Y], the protein stability index turned out to be 2.02.
Turning to PSLLELAWEKLLAAFPNLKNLSRT [A19K], the protein stability index stood at 1.95.
Take PSLLELAWEKLLAAFPNLENLSRT [A19E]: the protein stability index was 2.31.
The same measure, in the same setting: the value for PSLLELAWEKLLAAFPNLRNLSRT [A19R] was 2.4; that for PSLLELAWEKLLAAFPNLFNLSRT [A19F] was 2.
As for PSLLELAWEKLLAAFPNLVNLSRT [A19V], the protein stability index stood at 2.3.
Same read-out and setting: with PSLLELAWEKLLAAFPNLGNLSRT [A19G] the figure was 2.17; with PSLLELAWEKLLAAFPNLTNLSRT [A19T], 1.77; with PSLLELAWEKLLAAFPNLLNLSRT [A19L], 1.8.
As to PSLLELAWEKLLAAFPNLMNLSRT [A19M], the protein stability index was 2.1.
Same read-out and setting: with PSLLELAWEKLLAAFPNLWNLSRT [A19W] the figure was 1.57; with PSLLELAWEKLLAAFPNLSNLSRT [A19S], 2.
The same measure, in the same setting: with PSLLELAWEKLLAAFPNLCNLSRT [A19C] the figure was 2.04.

Variants of B2 are the subject of a further series. The description is as above. Conditions: c terminus: a fixed tail appended.
With WIVDKQHVYIGSAGLCWQSLGQMK [D16C], the protein stability index is 2.39.
WIVDKQHVYIGSAGNDWQSLGQMK [L15N]: the protein stability index came to 2.01.
WIVDKQHVYIGSAGLDWQSRGQMK [L20R]: the protein stability index was determined as 2.13.
On the same count and under the same terms, the value for WIVDKQHVYIGSAGLDWLSLGQMK [Q18L] was 2.15.
As for WIVDKQHVYIGSAGLDWQSLGQNK [M23N], the protein stability index was determined as 1.9.
Still for that read-out and setting: the value for WIVDKQHVSIGSAGLDWQSLGQMK [Y9S] was 2.01.
